Measurements published in the supplement of paper PMC10201428.
± gives the standard deviation of the averaged measurements.

Legend:
[1] = tested on: VchCAST RNA-guided transposition machinery (E. coli BL21(DE3) host, lacZ target); test: relative integration efficiency (T-RL orientation) vs wild-type transposon end (log2 (normalized fold change)); transposon end mutated: right end (5 bp flank + 75 bp right end); higher = more efficient transposition
How it was run: (§1)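 Co-transformation of E. coli BL21(DE3) combined a pUC57 mini-transposon donor, holding barcoded pools of 1549 left-end or 1849 right-end variants, with a T7-driven plasmid encoding a CRISPR array, tniQ-cas8-cas7-cas6 and tnsA-tnsB-tnsC. After plating with 0.1 mM IPTG at 37°C for 18 h, input plasmids and genomic integration junctions were PCR-amplified and Illumina-sequenced across two biological output replicates, with four reference barcodes. Relative integration efficiency is the normalised, log-transformed output/input barcode fold change.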

[2] = tested on: VchCAST RNA-guided transposition machinery (E. coli BL21(DE3) host, lacZ target); test: relative integration efficiency (T-LR orientation) vs wild-type transposon end (log2 (normalized fold change)); transposon end mutated: right end (5 bp flank + 75 bp right end); higher = more efficient transposition
How it was run: as §1

Row | Sequence | relative integration efficiency (log2) [1] | relative integration efficiency (log2) [2]
1 | ACATTTGTTGATACAACCATAAAATGATAATTACACCCATAAATTGATAATTATCACACCCATAAATTGATATTGGGAGTGATCATAGTCAGACCAACATTGCTACGACCCGTATTCGCACCGACAC | -0.111 ± 0.04 | 0.108 ± 0.15
2 | ACATTTGTTGATACAACCATAAAATGATAATTACACCCATAAATTGATAATTATCACACCCATAAATTGATATTTAAGAGGATCATAGTCAGACCAACATTGCTACGACCCGTATTCGCACCGACAC | 0.179 ± 0.034 | 0.08 ± 0.011
3 | ACATTTGTTGATACAACCATAAAATGATAATTACACCCATAAATTGATAATTATCACACCCATAAATTGATATTTAAGCTGATCATAGTCAGACCAACATTGCTACGACCCGTATTCGCACCGACAC | -0.000531 ± 0.0027 | -0.0384 ± 0.075
4 | ACATTTGTTGATACAACCATAAAATGATAATTACACCCATAAATTGATAATTATCACACCCATAAATTGATCGGTAAGAGGATCATAGTCAGACCAACATTGCTACGACCCGTATTCGCACCGACAC | -0.421 ± 0.075 | 1.33 ± 0.2
5 | ACATTTGTTGATACAACCATAAAATGATAATTACACCCATAAATTGATAATTATCACACCCATAAATTGATCTCTGATCATAGTCAGACCAACATTGCTACGACCCGTATTCGCACCGACACTGACT | -0.209 ± 0.021 | 0.731 ± 0.26
6 | ACATTTGTTGATACAACCATAAAATGATAATTACACCCATAAATTGATAATTATCACACCCATAAATTGCGCGGTAAGAGGATCATAGTCAGACCAACATTGCTACGACCCGTATTCGCACCGACAC | -0.4 ± 0.022 | 2.18 ± 0.12
7 | ACATTTGTTGATACAACCATAAAATGATAATTACACCCATAAATTGATAATTATCACACCCATAAATTTCGCGGTAAGAGGATCATAGTCAGACCAACATTGCTACGACCCGTATTCGCACCGACAC | -0.719 ± 0.14 | 2.22 ± 0.05
8 | ACATTTGTTGATACAACCATAAAATGATAATTACACCCATAAATTGATAATTATCACACCCATAACGGTCGCGGTAAGAGGATCATAGTCAGACCAACATTGCTACGACCCGTATTCGCACCGACAC | -0.752 ± 0.12 | 2.14 ± 0.13
9 | ACATTTGTTGATACAACCATAAAATGATAATTACACCCATAAATTGATAATTATCACACCCATACCGGTCGCGGTAAGAGGATCATAGTCAGACCAACATTGCTACGACCCGTATTCGCACCGACAC | -0.58 ± 0.031 | 2.44 ± 0.13
10 | ACATTTGTTGATACAACCATAAAATGATAATTACACCCATAAATTGATAATTATCACACCCATCCCGGTCGCGGTAAGAGGATCATAGTCAGACCAACATTGCTACGACCCGTATTCGCACCGACAC | -0.648 ± 0.11 | 2.36 ± 0.21
11 | ACATTTGTTGATACAACCATAAAATGATAATTACACCCATAAATTGATAATTATCACACCCCGCCCGGTCGCGGTAAGAGGATCATAGTCAGACCAACATTGCTACGACCCGTATTCGCACCGACAC | -0.532 ± 0.054 | 2.47 ± 0.19
12 | ACATTTGTTGATACAACCATAAAATGATAATTACACCCATAAATTGATAATTATCACACCGTATAATTGATATTGCCTCTGATCATAGTCAGACCAACATTGCTACGACCCGTATTCGCACCGACAC | -0.648 ± 0.21 | 2.25 ± 0.06
13 | ACATTTGTTGATACAACCATAAAATGATAATTACACCCATAAATTGATAATTATCACACCGTTAAATTGATATTGCCTCTGATCATAGTCAGACCAACATTGCTACGACCCGTATTCGCACCGACAC | -0.625 ± 0.1 | 1.85 ± 0.26
14 | ACATTTGTTGATACAACCATAAAATGATAATTACACCCATAAATTGATAATTATCACACGGATAAATTGATATTGCCTCTGATCATAGTCAGACCAACATTGCTACGACCCGTATTCGCACCGACAC | -0.238 ± 0.062 | 1.28 ± 0.22
15 | ACATTTGTTGATACAACCATAAAATGATAATTACACCCATAAATTGATAATTATCACACGGTAAAATTGATATTGCCTCTGATCATAGTCAGACCAACATTGCTACGACCCGTATTCGCACCGACAC | -0.357 ± 0.043 | 2.35 ± 0.067
16 | ACATTTGTTGATACAACCATAAAATGATAATTACACCCATAAATTGATAATTATCACAGGCATAAATTGATATTGCCTCTGATCATAGTCAGACCAACATTGCTACGACCCGTATTCGCACCGACAC | -0.0803 ± 0.09 | 0.567 ± 0.2

Row | Sequence | relative integration efficiency (log2) [1] | relative integration efficiency (log2) [2]
17 | ACATTTGTTGATACAACCATAAAATGATAATTACACCCATAAATTGATAATTATCACAGGGTTAAATTGATATTGCCTCTGATCATAGTCAGACCAACATTGCTACGACCCGTATTCGCACCGACAC | -0.425 ± 0.14 | 2.33 ± 0.045
18 | ACATTTGTTGATACAACCATAAAATGATAATTACACCCATAAATTGATAATTATCACCAAAATAAATTGATATTGCCTCTGATCATAGTCAGACCAACATTGCTACGACCCGTATTCGCACCGACAC | -0.112 ± 0.18 | 2.72 ± 0.1
19 | ACATTTGTTGATACAACCATAAAATGATAATTACACCCATAAATTGATAATTATCACCAAACGCCCGGTCGCGGTAAGAGGATCATAGTCAGACCAACATTGCTACGACCCGTATTCGCACCGACAC | -0.505 ± 0.14 | 2.47 ± 0.095
20 | ACATTTGTTGATACAACCATAAAATGATAATTACACCCATAAATTGATAATTATCACCACCATAAATTGATATTGCCTCTGATCATAGTCAGACCAACATTGCTACGACCCGTATTCGCACCGACAC | 0.659 ± 0.12 | 1.14 ± 0.095
21 | ACATTTGTTGATACAACCATAAAATGATAATTACACCCATAAATTGATAATTATCACCCATAAATTGATATTGCCTCTGATCATAGTCAGACCAACATTGCTACGACCCGTATTCGCACCGACACTG | -0.448 ± 0.081 | 2.21 ± 0.045
22 | ACATTTGTTGATACAACCATAAAATGATAATTACACCCATAAATTGATAATTATCACTGCCATAAATTGATATTGCCTCTGATCATAGTCAGACCAACATTGCTACGACCCGTATTCGCACCGACAC | -0.228 ± 0.042 | 1.72 ± 0.2
23 | ACATTTGTTGATACAACCATAAAATGATAATTACACCCATAAATTGATAATTATCACTGGGATAAATTGATATTGCCTCTGATCATAGTCAGACCAACATTGCTACGACCCGTATTCGCACCGACAC | -0.4 ± 0.027 | 2.07 ± 0.067
24 | ACATTTGTTGATACAACCATAAAATGATAATTACACCCATAAATTGATAATTATCAGTCCCATAAATTGATATTGCCTCTGATCATAGTCAGACCAACATTGCTACGACCCGTATTCGCACCGACAC | -0.441 ± 0.031 | 1.51 ± 0.031
25 | ACATTTGTTGATACAACCATAAAATGATAATTACACCCATAAATTGATAATTATCAGTGGCATAAATTGATATTGCCTCTGATCATAGTCAGACCAACATTGCTACGACCCGTATTCGCACCGACAC | -0.377 ± 0.12 | 1.86 ± 0.12
26 | ACATTTGTTGATACAACCATAAAATGATAATTACACCCATAAATTGATAATTATCAGTGGGTATTTAACTATAACGCTCTGATCATAGTCAGACCAACATTGCTACGACCCGTATTCGCACCGACAC | -0.681 ± 0.17 | 2.65 ± 0.1
27 | ACATTTGTTGATACAACCATAAAATGATAATTACACCCATAAATTGATAATTATCCAACCCATAAATTGATATTGCCTCTGATCATAGTCAGACCAACATTGCTACGACCCGTATTCGCACCGACAC | -0.362 ± 0.18 | 0.964 ± 0.12
28 | ACATTTGTTGATACAACCATAAAATGATAATTACACCCATAAATTGATAATTATCCACAAACGCCCGGTCGCGGTAAGAGGATCATAGTCAGACCAACATTGCTACGACCCGTATTCGCACCGACAC | -0.795 ± 0.075 | 2.3 ± 0.11
29 | ACATTTGTTGATACAACCATAAAATGATAATTACACCCATAAATTGATAATTATCCACACCATAAATTGATATTGCCTCTGATCATAGTCAGACCAACATTGCTACGACCCGTATTCGCACCGACAC | -0.495 ± 0.13 | 0.485 ± 0.4
30 | ACATTTGTTGATACAACCATAAAATGATAATTACACCCATAAATTGATAATTATCCACCCATAAATTGATATTGCCTCTGATCATAGTCAGACCAACATTGCTACGACCCGTATTCGCACCGACACT | -0.433 ± 0.14 | 0.607 ± 0.072
31 | ACATTTGTTGATACAACCATAAAATGATAATTACACCCATAAATTGATAATTATCCCACCCCATTTAACTATAACGCTCTGATCATAGTCAGACCAACATTGCTACGACCCGTATTCGCACCGACAC | -1.3 ± 0.37 | 2.388 ± 0.023
32 | ACATTTGTTGATACAACCATAAAATGATAATTACACCCATAAATTGATAATTATCTGACCCATAAATTGATATTGCCTCTGATCATAGTCAGACCAACATTGCTACGACCCGTATTCGCACCGACAC | -0.393 ± 0.12 | 0.513 ± 0.03
